From paper doi:10.1101/2024.03.19.585040
Read-outs that look alike come from different tables or passages of the source.

Key:
[1] = target: His-tagged FakB2 (Staphylococcus aureus) (Staphylococcus aureus); assay: BLI
[2] = target: Fatty acid kinase FakA (Staphylococcus aureus), wild type (Staphylococcus aureus); assay: mass photometry
[3] = target: Fatty acid kinase FakA (Staphylococcus aureus), wild type (Staphylococcus aureus); assay: SEC-SAXS
[4] = target: Fatty acid kinase FakA (Staphylococcus aureus), wild type (Staphylococcus aureus); assay: mass photometry; remark: listed apart in the source
[5] = target: FakA H282A, H284A (Staphylococcus aureus) (Staphylococcus aureus); assay: mass photometry
[6] = target: FakA H282A, H284A (Staphylococcus aureus) (Staphylococcus aureus); assay: mass photometry; remark: listed apart in the source

Substance	Kd [1] [nM]	percent of the protein in the dimer peak [2] [%]	stoichiometry N [3]	percent of the protein in the dimer peak [4] [%]	stoichiometry N [4]	percent of the protein in the dimer peak [5] [%]	percent of the protein in the dimer peak [6] [%]
Fatty acid kinase FakA (Staphylococcus aureus), wild type (enzyme)	4.34	57	2	77	2		
FakA H282A, H284A (Staphylococcus aureus) (enzyme)						63	24
